We go through six molecules from patent US20040170622A1, “Methods and compositions for modulating XBP-1 activity” (President and Fellows of Harvard College, priority 2002, published 2004).

Bounds are passed on as bounds.

Test [1] addresses T1, IL-6R (Homo sapiens, UniProt P08887).
T1 sequence (P08887 20-468): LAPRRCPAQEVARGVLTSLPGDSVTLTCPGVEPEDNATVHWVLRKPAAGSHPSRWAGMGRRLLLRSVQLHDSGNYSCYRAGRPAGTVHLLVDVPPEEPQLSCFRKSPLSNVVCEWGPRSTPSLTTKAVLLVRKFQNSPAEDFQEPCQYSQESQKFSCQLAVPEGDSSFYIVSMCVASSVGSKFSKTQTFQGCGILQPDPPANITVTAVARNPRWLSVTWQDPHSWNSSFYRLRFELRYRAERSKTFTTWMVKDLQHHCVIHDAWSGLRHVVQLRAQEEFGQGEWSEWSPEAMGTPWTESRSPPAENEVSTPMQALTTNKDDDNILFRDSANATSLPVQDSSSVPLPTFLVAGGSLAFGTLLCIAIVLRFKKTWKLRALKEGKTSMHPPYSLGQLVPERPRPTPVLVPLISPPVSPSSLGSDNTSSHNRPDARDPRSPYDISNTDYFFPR
Conditions: IL-6R alone; read-out: Kd (low affinity); cited from earlier work.

Test [2] addresses T2, IL-6/IL-6 R complex with gp130 (Homo sapiens, UniProt P08887).
T2 sequence (P08887 20-468): T1 sequence (P08887 20-468)
T2 sequence (P40189 23-918 partner): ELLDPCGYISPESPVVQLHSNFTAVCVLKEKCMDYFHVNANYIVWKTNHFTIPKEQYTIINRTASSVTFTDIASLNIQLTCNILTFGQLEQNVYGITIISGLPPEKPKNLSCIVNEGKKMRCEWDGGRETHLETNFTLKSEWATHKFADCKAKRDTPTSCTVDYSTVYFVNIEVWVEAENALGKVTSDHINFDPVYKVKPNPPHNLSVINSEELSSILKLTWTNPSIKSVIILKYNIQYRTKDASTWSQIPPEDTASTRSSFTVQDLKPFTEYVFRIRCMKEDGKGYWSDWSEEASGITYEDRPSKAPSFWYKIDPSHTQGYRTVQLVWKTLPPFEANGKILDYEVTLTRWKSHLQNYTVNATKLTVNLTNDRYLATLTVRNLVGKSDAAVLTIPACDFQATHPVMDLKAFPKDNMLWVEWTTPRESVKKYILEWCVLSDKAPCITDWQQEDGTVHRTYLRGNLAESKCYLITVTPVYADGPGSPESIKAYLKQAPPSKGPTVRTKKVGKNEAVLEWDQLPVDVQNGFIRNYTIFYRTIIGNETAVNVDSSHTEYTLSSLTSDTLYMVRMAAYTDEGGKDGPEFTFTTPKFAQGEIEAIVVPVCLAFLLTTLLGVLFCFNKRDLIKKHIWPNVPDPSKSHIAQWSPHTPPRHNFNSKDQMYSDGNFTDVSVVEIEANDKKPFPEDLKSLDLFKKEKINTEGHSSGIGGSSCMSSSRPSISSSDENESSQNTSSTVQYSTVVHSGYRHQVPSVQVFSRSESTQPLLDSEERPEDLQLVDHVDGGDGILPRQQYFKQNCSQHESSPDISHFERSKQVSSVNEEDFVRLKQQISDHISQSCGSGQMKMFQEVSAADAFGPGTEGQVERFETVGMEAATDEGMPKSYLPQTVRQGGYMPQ
To be noted: IL-6/IL-6R complex on the membrane with gp130; read-out: Kd (high affinity); cited from earlier work.

Test [3] addresses XBP-1s (spliced form of murine XBP-1 protein, 371 aa) (mouse) (UniProt O35426). The experiment in a line: cell-based or functional assay.
The subject of test [4] is XBP-1 mRNA splicing. As to the kind of experiment: XBP-1 mRNA splicing and XBP-1s protein in purified murine B cells (RT-PCR, Western blot). The format is cell-based. Conditions: for XBP-1 mRNA splicing (RT-PCR): purified murine B cells, 24-72 h. How it is done: (§1) Mouse splenocytes or purified B cells (purified mature B cells were isolated from spleen and lymph nodes by magnetic CD43 depletion or B220 magnetic bead selection, Miltenyi Biotech, Auburn Calif.) were plated at 1×10^6 cells/ml in complete media containing RPMI 1640 supplemented with 10% fetal calf serum (FBS)(Hyclone Laboratories), glutamine (2 mM), penicillin (50 units/ml), streptomycin (50 μg/ml), Hepes (100 mM), nonessential amino acids (1×) sodium pyruvate (1 mM) and β-ME (50 μM) and stimulated with anti-CD40(1 μg/ml)(Pharmigen) or LPS (20 μg/ml)(Sigma). Cytokines (R&D Systems, Minneapolis, Minn.) were used at IL-4 (20 ng/ml), IL-2 (20 ng/ml), Il-5 (20 ng/ml), IL-6 (20 ng/ml ), IL-10 (20 ng/ml ) and IL-13 (20 ng/ml). Stimulated B cells were split to a cell concentration of 1×10^6 cells/ml with fresh media every 24 h. The BCL1 (CWS13.20-3B3 ATCC CRL 1699) cell line was cultured in RPMI media supplemented with 10% FBS, gentamicin (20 μg/ml), and β-ME (50 μM). To induce differentiation cells were plated at 2×10^5 cells/ml and treated with recombinant mouse IL-2 and IL-5 (20 ng/ml) (R&D systems).
Total RNA was isolated using TriZo1 (Gibco-BRL) or Qiashedder/Rneasy RNA purification columns (Quiagen). Northern Blots were performed as described (Rengarajan et al., 2000 Immunity. 12:293-300). […] The following probes were used after ^32P-radiolabeling with the ReadyPrime labeling system (Amersham-Pharmacia): XBP-1 (15-830 of the murine coding region), GRP94 and GRP78 (both a kind gift of R. J. Kaufman Univ. of Michigan (Lee et al., 2002)), Blimp (Nco1-Sca1 fragment), c-myc cDNA and Il-6 cDNA . […]
The UPR is induced in cells that detect irregular amounts of unfolded or unassembled protein in the lumen of the ER. […] Total RNAs were prepared at the indicated time point and XBP-1 mRNA levels (a) were determined by Northern blot analysis with γ-actin control (b). […] XBP-1s protein levels were also measured by Western blot analysis (d). […] In panel (C) XBP-1s protein levels were measured by Western blot analysis in the cells stimulated as indicated for 72 hours.

Test [5] deals with spliced XBP-1. The experiment in a line: Inhibition of transactivation function of spliced XBP-1, luciferase in NIH 3T3 cells. It counts as cell-based. To be noted: NIH 3T3, 200 ng spliced XBP-1, 200 ng mutant. As for the experimental part: Versions of XBP-1 with various deletions of the C terminal transcription activating domain (e.g., consisting of the N terminal 225, 188, or 136 amino acids of the spliced form of XBP-1) that expressed high levels of protein by western analysis were created. The proteins were tested for their ability to inhibit the transactivation function of spliced XBP-1. Both the 188 and 136 N terminal mutants were extremely potent inhibitors (effective at a 1:1 ratio) of the spliced XBP-1. NIH 3T3 cells expressing XBP-1uc constructs were transfected with 200 ng of spliced XBP-1, yielding a relative luciferase activity of 44.5. 200 ng of XBP-N188 lowered the luciferase level to 1.8 and 200 ng of XBP-N136 lowered the luciferase activity to 2.2.

For test [6], the system named is XBP-1 mRNA. As to the kind of experiment: XBP-1 mRNA induction by cytokines in purified splenic B cells (Northern blot). The format is cell-based, mouse. How it is done:
as §1
Total RNA was isolated using TriZo1 (Gibco-BRL) or Qiashedder/Rneasy RNA purification columns (Quiagen). Northern Blots were performed as described (Rengarajan et al., 2000 Immunity. 12:293-300). Briefly, 7-10 μg RNA were electrophoresed on 1.2% agarose, 6% formaldehyde gels transferred onto Genescreen membrane (NEN) and covalently bound to the membrane using UV Stratalinker (Stratagene). The following probes were used after ^32P-radiolabeling with the ReadyPrime labeling system (Amersham-Pharmacia): XBP-1 (15-830 of the murine coding region), GRP94 and GRP78 (both a kind gift of R. J. Kaufman Univ. of Michigan (Lee et al., 2002)), Blimp (Nco1-Sca1 fragment), c-myc cDNA and Il-6 cDNA . […]
Since XBP-1 is required for terminal B cell differentiation, it was important to identify the stimuli that regulate XBP-1 gene expression. A plethora of cytokines (IL-2, IL-4, IL-5, IL-6, IL-10, IL-13) has been implicated in plasma cell differentiation both in vitro and in vivo (reviewed in Calame, K. L. (2001 Nat. Inimunol. 2: 1103-1108; Liu, Y. J., and Banchereau, J. (1997). Sem Immunol 9: 235; Zubler, 1997Sem. Hematol 34:13). It was possible that these cytokines effected terminal B cell differentiation by modulating XBP-1 gene expression. Thus, the ability of these cytokines to upregulate XBP-1 mRNA transcripts in B cells was tested. Purified splenic B cells were cultured for 24 h in the presence or absence of various cytokines and XBP-1 expression determined by Northern blot analysis. […] XBP-1 mRNA levels were determined by Northern blot analysis with γ-actin as control. […] XBP-1 mRNA levels were determined as above. […]

The mark [7] stands for this setting: purified B cells treated with IL-4.

As for “IL-6: multi-functional cytokine; mature human IL-6 is a 185 amino acid polypeptide”, the Kd in test [1] is roughly 1 nM; in test [2] it was roughly 0.01 nM. For “XBP-N136 (N terminal 136 amino acids of the spliced form of XBP-1) (from UniProt O35426 1-136)”, in test [3], the relative luciferase activity in NIH 3T3 cells (44.5 with 200 ng of spliced XBP-1 alone) (relative luciferase activity) stood at 2.2. As to lipopolysaccharide [LPS], the “spliced XBP-1 protein production” value in test [4] (in the absence of other stimuli) is listed as “competent to produce substantial amounts of spliced XBP-1 protein”. The “XBP-1 mRNA splicing (RT-PCR)” value in test [4] is listed as “an additional band of 145 bp corresponding to the spliced form of XBP-1 mRNA”.

B1: XBP-N188: XBP-1 deletion mutant consisting of the N terminal 188 amino acids of the spliced form (protein)
chain: MVVVAAAPSAATAAPKVLLLSGQPASGGRALPLMVPGPRAAGSEASGTPQARKRQRLTHLSPEEKALRRKLKNRVAAQTARDRKKARMSELEQQVVDLEEENHKLQLENQLLREKTHGLVVENQELRTRLGMDTLDPDEVPEVEAKGSGVRLVAGSAESAAGAGPVVTSPEHLPMDSDTVASSDSESD
B1 returned a relative luciferase activity in test [5] of 1.8.

B2: XBP-N136: XBP-1 deletion mutant consisting of the N terminal 136 amino acids of the spliced form (protein, UniProt O35426 1-136, looked up, fragment)
chain: MVVVAAAPSAATAAPKVLLLSGQPASGGRALPLMVPGPRAAGSEASGTPQARKRQRLTHLSPEEKALRRKLKNRVAAQTARDRKKARMSELEQQVVDLEEENHKLQLENQLLREKTHGLVVENQELRTRLGMDTLD
modifications: XBP-1s
notes: XBP-1 deletion mutant consisting of the N terminal 136 amino acids of the spliced form
The molecule B2 came in with a relative luciferase activity in test [5] of 2.2.

B3: IL-4: multi-functional cytokine; recombinant IL-4 used at 20 ng/ml (protein, UniProt P05112 25-153, looked up)
Interleukin-4: HKCDITLQEIIKTLNSLTEQKTLCTELTVTDIFAASKNTTEKETFCRAATVLRQFYSHHEKDTRCLGATAQQFHRHKQLIRFLKRLDRNLWGLAGLNSCPVKEANQSTLENFLERLKTIMREKYSKCSS
Turning to B3, in test [6] (setting [7]), the “time at which XBP-1 transcript increase is apparent” value is no more than 1 h and the “time of peak of XBP-1 transcripts” value is given as “around 8 h”. Further, in test [6] (purified splenic B cells, cytokines 20 ng/ml, 24 h), the XBP-1 transcript induction entry is on record as “induced a significant amount of XBP-1 ranscript”. In addition, the “XBP-1 mRNA splicing (RT-PCR)” value in test [4] was “unable to induce splicing”.

One may read the Kd as a measure of binding affinity in units of concentration.
